Results: US20060153798A1

Molecular target: growth hormone (GH) receptor (mouse) (UniProt P16882)
Experiment: cell-based or functional assay

**Q.** How did the GH receptor mRNA expression levels in the liver (quantitative RT-PCR), 60 minutes after 30 µg subcutaneous rGH (% of level prior to administration) turn out when “recombinant rat growth hormone (from UniProt P01244 27-216) (ligand)” was run?
**A.** 65

**Q.** What about the IGF-I-BP3 mRNA expression levels in the liver (quantitative RT-PCR, % of control), 60 minutes after 30 µg subcutaneous rGH of the same substance?
**A.** 250 % increase
